The results in this text go back to the supplement of paper PMC12042874.

± gives the uncertainty stated by the source.

The series in a line: amyloid nucleation score (Sup35N fusion, yeast selection) (log enrichment); library NNK3; higher = more nucleation; inactive = no reads after selection. Put shortly: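 Three technical output replicates were used for random libraries. Psi-negative yeast expressing peptides of 20 random codons fused to Sup35N were induced with 100 μM copper sulfate for 24 hours and grown 7 days at 30°C on medium lacking adenine and uracil, and input and output plasmid inserts were Illumina-sequenced, excluding sequences with under 100 input reads. The nucleation score is the DiMSum log enrichment of output over input reads, centred on the mode score of non-aggregating sequences.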
In the case of GAHWNASSHICGRKD, the amyloid nucleation score entry was “inactive”.
The same measure for GALAKFLLISKTMRVDMRMV: “inactive”; for GAMWLSCT: “inactive”.
The same measure for GANSGFRGIDGLLPALDKQE: “inactive”; for GASLYWIP: 0.234 ± 0.88; for GCCFLVILWMKYDCYLGDQV: “inactive”.
Turning to GCFDVPNCVSFQSFRACGKG, the amyloid nucleation score entry is “inactive”.
The value for GCFSSSESTIWGGAVDAKVS was “inactive”; that for GCHLVSCRRTGAL was “inactive”.
The value for GCKLIEWDVLIVDPMPARGR was “inactive”.
The same measure for GCNHC: “inactive”.
For GCREICFNLCFKRSLTCALL, the amyloid nucleation score result was “inactive”.
In the case of GCRNVVCVVDGFSVM, the amyloid nucleation score entry is “inactive”.
The value for GCSWLFSSLCFLGDNALGST was “inactive”; that for GCYEGMLVIFLVFWLVVVYP was “inactive”; that for GDTAPNSSTISLTVFFPLFA was 0.697 ± 0.21.
On to GEDVGPCMTESCRYAYLRYT, for which the amyloid nucleation score entry is “inactive”.
The same measure for GELPLRVKVKSFHTDTSLRT: “inactive”; for GEMVFGVVWIVELETFCIPI: “inactive”; for GFAYESQAA: “inactive”.
The same measure for GFFELYS: “inactive”.
The substance GFFFSLFYWNHFRGMTRQRF returned an amyloid nucleation score of 0.973 ± 0.2.
The same measure for GFGESGNR: “inactive”; for GFGQATTCLSLNSACF: 0.544 ± 0.18.
The value for GFHLGFHGWNCKLAK was -0.349 ± 0.49; that for GFLESCENLVQFKRARWSNI was “inactive”; that for GFNVTWFEIYGGLEDSWWFC was “inactive”.
On to GFRRRSMDALSVTVDSVVAP, for which the amyloid nucleation score entry is “inactive”.
On to GFRYALHSLIDR, for which the amyloid nucleation score entry is “inactive”.
The value for GFRYSLLSSRSFYWHRSPSM was “inactive”; that for GFSYVVNYVFFTDVKNTAAL was 2.17 ± 0.076.
GFVNSVRFDLIECDVLKRSN: the amyloid nucleation score entry is “inactive”.
The same measure for GGARL: “inactive”.
Take GGCGGVKHAHYNTIEY: the amyloid nucleation score entry was “inactive”.
The same measure for GGCGMDV: “inactive”; for GGLHSGVGKMAYELNMYS: “inactive”.
The value for GGLYKYKNRTRLFMSWRVSR was “inactive”; that for GGNGVPRVWSVFIRRVWNSV was “inactive”; that for GGNLFSSVS was “inactive”.
The same measure for GGNVCRGVKIIVMWAMIFVM: “inactive”; for GGSEGQSVPAC: -0.241 ± 1.5; for GGSSYTYHNSVDLLDWFCYV: 1.23 ± 0.11.
As to GGSVWWY, the amyloid nucleation score entry is “inactive”.
The value for GGTAHNIGCVSRLVMPARGI was “inactive”; that for GGWSARYTNCNLYYTEASGP was 0.857 ± 0.18.
With GHIKWGNCSSYVSGFKLTCG, the amyloid nucleation score entry is “inactive”.
The value for GHWTLDYEFKYPYGQQYHVP was “inactive”; that for GIASFECGDSCKSVN was “inactive”; that for GIFCGLTGLIDGMRTQHSEL was 0.816 ± 0.12.
With GIGRDCNVSGALCQRAVANV, the amyloid nucleation score result is “inactive”.
Consider GIIMPKSRLVPTWTQSRSCC, for which the amyloid nucleation score entry is “inactive”.
The same measure for GILCCAL: “inactive”; for GIMVSWIVGFMLCSILRMGD: “inactive”; for GINHNGRVECNRFKMNY: “inactive”.
The value for GISRYFYSMCETWMNCHSGV was 0.793 ± 0.28; that for GIVRSVCYVNGCVLDHEVGI was “inactive”.
For the substance GIVTLSA, the amyloid nucleation score result was “inactive”.
The value for GIYGRTGHSYVF was “inactive”; that for GIYRYVQGWHDAPHGGNCTE was “inactive”.
The same measure for GKDKLEGKEGGVSCDGNLRP: “inactive”; for GKDSGDCTRIRLGV: 1.2 ± 0.14.
The value for GKGCYLVVCDYTTCTKFLNM was “inactive”; that for GKKMKEGCSSNISIVELSRN was “inactive”; that for GKTNNLLSFFSKTPLTFSCL was “inactive”.
As for GKYCLNDSCPFHY, the amyloid nucleation score entry was “inactive”.
The value for GLCKS was “inactive”.
The value for GLDRI was “inactive”; that for GLDTAR was “inactive”; that for GLERLMDPLGNHRVRGDRVG was “inactive”.
Consider GLHLYEFRGRCNTSVDSQTK, for which the amyloid nucleation score result was “inactive”.
The value for GLKLCCV was “inactive”; that for GLKNV was -0.431 ± 0.8; that for GLLLVIFNGFGFNDYEEFGM was “inactive”.
On to GLMLYTSMVGSYDDWPD, for which the amyloid nucleation score result is “inactive”.
The same measure for GLNMPLSFSPKRRHFVREWK: “inactive”; for GLSHESTYKEEFESSATSGV: “inactive”; for GLVVVT: “inactive”.
GLVVWKNGINWLSEGVTIAR: the amyloid nucleation score stood at 0.567 ± 0.25.
The value for GLVWTW was -0.01 ± 0.48; that for GLVYNNIWISLYFNGATVES was 2.08 ± 0.06; that for GMAEFALQWIRMIGRL was 0.214 ± 0.45.
The same measure for GMAVVLSLAPAGRKRTTTNV: “inactive”; for GMCWVDFVNNTASCVWFPLC: “inactive”; for GMDCNKIRLASSWVYYLTSE: “inactive”.
The same measure for GMLGLMAGKNLEGADRL: “inactive”.
For GMRSLDMRWAGVMYVHRRRL, the amyloid nucleation score entry is “inactive”.
The value for GMRSSLNIDAFGSGAELMHW was “inactive”; that for GMSSLIGIDMNLSEKFGYPY was “inactive”; that for GMVWFRFLKYAKC was -1.54 ± 2.4.
The same measure for GNCTSVLDPSELVVYHCEGS: “inactive”.
The same measure for GNFESVSDRKFSISFHCWHS: “inactive”.
For the substance GNIAELVSGREVYNYVN, the amyloid nucleation score was -0.075 ± 0.9.
The same measure for GNIEGVRNVVALTMHVVNWV: 2.2 ± 0.091; for GNITTRLHFFTNGFRPSFHG: “inactive”; for GNNCPRVSIFNREAKIDNVL: “inactive”.
As to GNTFLWCGRVDSYSTHSYLC, the amyloid nucleation score result was “inactive”.
The value for GNVQFCRFFFDMSSLHDIMT was “inactive”; that for GNVSCHFILGQRVHFPSCDF was 0.809 ± 0.29.
The value for GPFVSFYFVFTRFNQTSLGF was 1.57 ± 0.066; that for GPGNMAMNVRAVKSGYHIAG was “inactive”.
Consider GPIINVIS, for which the amyloid nucleation score entry was “inactive”.
The same measure for GPSAGGFCQLRGVDVDV: “inactive”; for GPSWVTHESRKCTCQARDKV: “inactive”.
Regarding GPYHELCNHRL, the amyloid nucleation score entry was “inactive”.
The same measure for GQFANPVK: “inactive”; for GQPTICKDGYSMLLNEFSRS: “inactive”.
The same measure for GQVYMSVRV: “inactive”.
The value for GQWDYLLTQYKNIK was -1.01 ± 1.1; that for GRALNWTG was “inactive”.
As to GRFKSGSLPFRRSGE, the amyloid nucleation score result was “inactive”.
The value for GRGSKLVCVR was 2.63 ± 0.071; that for GRGYSSSTLWVLGWFD was “inactive”; that for GRISAKSVVTSWRGVGPYSV was “inactive”.
The value for GRIYFYLVKTDPVQERTQLF was “inactive”.
The value for GRKVCLSRPTRFNSFLWMVY was “inactive”.
For the substance GRLINYSILKMVTVWFYLL, the amyloid nucleation score entry is “inactive”.
The same measure for GRLIPREGT: “inactive”; for GRNKSLYGIGLVRYVMLVSE: “inactive”.
The value for GRRMWCCREAHRSNDQV was 1.28 ± 0.11; that for GRRYRKFDNTGGNSPK was “inactive”; that for GRSGYH was “inactive”.
Take GRSSMFRINNQMLCWVSIPC: the amyloid nucleation score entry is “inactive”.
On to GRTYSGYTGWRGVLGHDLVM, for which the amyloid nucleation score entry was “inactive”.
The same measure for GRYHDGAAQWGRHNVFRSSA: “inactive”; for GSALCHCLCNMEVMSYFVAF: “inactive”.
The same measure for GSCFVKEVSGGHMLGS: “inactive”; for GSDEEESLNCSYASSLTSVC: “inactive”.
The same measure for GSFGPIFQWNTIGALGFFG: 2.19 ± 0.059.
Turning to GSGGAMELVRFYYLNVAVCV, the amyloid nucleation score result was “inactive”.
For GSKLICIVWLFLLFG, the amyloid nucleation score entry is “inactive”.
The same measure for GSLRNPVSGRLENVGGRAWG: “inactive”.
